In US20060094659A1 one finds percent blocking of DBP binding to cells and percent inhibition of cell binding to immobilized DBP data, which are given here for three molecules.

The target of assay [1] is CD44 on the surface of U937-C5aR cells and human neutrophils (human) (UniProt P16070). Put plainly: AlexaFluor 488-labeled DBP binding to U937-C5aR cells pretreated with antibody, fluorescence.
For assay [2] the target is unchanged. Put plainly: Biacore SPR, U937-C5aR cells pretreated with 25 µg/ml anti-CD44, DBP immobilized.
In assay [3] the target is annexin A2 on the surface of U937-C5aR cells and human neutrophils (human) (UniProt P07355). The assay is described as follows: AlexaFluor 488-labeled DBP binding to U937-C5aR cells pretreated with antibody, fluorescence.
annexin A2 on the surface of U937-C5aR cells and human neutrophils (human), sequence (P07355 2-339): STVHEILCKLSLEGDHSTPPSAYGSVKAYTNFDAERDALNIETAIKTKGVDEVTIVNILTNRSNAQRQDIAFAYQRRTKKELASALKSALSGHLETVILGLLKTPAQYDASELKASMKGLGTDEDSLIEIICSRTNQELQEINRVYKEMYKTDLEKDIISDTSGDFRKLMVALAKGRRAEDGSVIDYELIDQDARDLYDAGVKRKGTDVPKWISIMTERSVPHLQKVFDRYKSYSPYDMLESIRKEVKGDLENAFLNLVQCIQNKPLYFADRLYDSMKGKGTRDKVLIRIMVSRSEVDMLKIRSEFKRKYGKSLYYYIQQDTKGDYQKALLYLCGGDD
Assay [4] concerns the target cell surface DBP binding site complex. The assay is described as follows: Biacore SPR, U937-C5aR cells pretreated with 0.5 µM peptide 2, DBP immobilized (competitor: immobilized DBP). In general terms: In SPR one partner is held on a chip, and binding of the other changes the refractive index at the surface.

“affinity-purified goat polyclonal anti-CD44 (N-18), Santa Cruz Biotechnology (antibody)”: the percent blocking of DBP binding to cells in assay [1] turned out to be 50%. In addition, the percent inhibition of cell binding to immobilized DBP in assay [2] worked out at 50%.
Consider “affinity-purified goat polyclonal anti-annexin A2 (C-16), Santa Cruz Biotechnology (antibody)”, for which, in assay [3], the percent blocking of DBP binding to cells is 50%.
On to NYGQAPLSLLVSYTKSYLSMVGS [DBP peptide 2 (residues 150-172)], for which the percent inhibition of cell binding to immobilized DBP in assay [4] was 50%.
